Experimental data as given in US20190218302A1, “ANTI-CANCER COMBINATION TREATMENT” (PROBIOCON GMBH, priority 2016, published 2019).

What was measured:
[1] = system: RANK expressing PBMC of a patient suffering from AML (94% blasts); assay: Chemotherapy resistance model, PBMC of an AML patient, flow cytometry (7AAD and Annexin-V-PE); type: cell-based, human
Procedure: FIG. 1: RANKL mediates resistance of malignant cells to chemotherapeutic treatment. Blood of a patient suffering from acute myeloid leukemia (AML) containing 94% blasts (leukemic cells) was obtained at time of diagnosis prior to treatment and peripheral blood mononuclear cells (PBMC) were isolated by density gradient centrifugation. PBMC were cultured in the presence or absence of doxorubicin (dox, 1 μM) and/or soluble RANKL (sRANKL, 500 ng/ml) as indicated.
RANK expressing PBMC of a patient suffering from AML (French-American-British (FAB) classification: M4; 94% peripheral blood blasts) were subjected to a model of chemotherapyresistance (FIG. 1). To this end, patient blood was obtained at time of diagnosis prior to treatment and PBMC were isolated by density gradient centrifugation. […] Since AML cells of the FAB type M4 resemble monocyte-like cells, this experiment is in line with studies in healthy monocytes showing that sRANKL (Seshasayee et al. 2004, Jour Biol Chem, 279(29):30202-9) acts as a pro-survival factor, likely due to upregulation of anti-apoptotic BCL-2 proteins.

[2] = system: MCF10A breast cancer cells; assay: MCF10A breast cancer cells with sRANKL, Denosumab and paclitaxel, flow cytometry with 7AAD; type: cell-based, human; conditions: 48 h, paclitaxel 10 nM added after 24 h
Procedure: FIG. 2: Blockade of RANKL by Denosumab overcomes resistance to chemotherapeutic treatment. MCF10A breast tumor cells were cultured for 48 h in the presence or absence of sRANKL (100 ng/ml) and/or Denosumab (20 μg/ml) as indicated. After the first 24 h of culture, paclitaxel (10 nM) was added where indicated. Then the percentage of living and dead cells was determined using flow cytometry with 7AAD.
To this end, it was evaluated if RANKL-induced chemoresistance could be overcome by application of a RANKL-inhibitor in the form of the approved RANKL antibody Denosumab. Therefore, MCF10A breast cancer cells were cultured for 48 h in the presence or absence of sRANKL (100 ng/ml, Immunotools) and Denosumab (20 μg/ml, Amgen) as indicated. After 24 h of culture, paclitaxel (10 nM, Taxomedac) representing a first line breast cancer therapeutic agent, was added where indicated.

[3] = system: MCF10A breast cancer cells; assay: Viability of tumor cells cultured with platelets and Denosumab, ATP content (CellTiter-Glo); type: cell-based, human; conditions: platelets plus Denosumab, 96 h; paclitaxel for the last 24 h
Procedure: (§1) A2780 ovarian cancer cells (left) and MCF10A breast cancer cells (right) were employed as model to study the influence of RANKL and its neutralization on chemotherapy resistance. To this end, 30,000 tumor cells were cultured in the presence or absence of platelets and Denosumab for 96 h. The indicated concentrations of doxorubicin (left) or paclitaxel (right) were added for the last 24 h. Then cell viability was determined by analysis of ATP content of each sample (CellTiter-Glo assay, Promega). Values obtained with untreated tumor cells were set to 1.
(§2) To assess the role of pRANKL in the context of systemic treatment, the viability of ovarian and breast cancer cells was analyzed. Cells were incubated with human platelets in the presence or absence of Denosumab to neutralize pRANKL which mimics the situation in cancer patients. Presence of platelets enhanced the viability/cellular activity of tumor cells already without chemotherapeutic treatment, and the same was observed upon chemotherapeutic treatment.

[4] = system: A2780 ovarian cancer cells; assay: as above; type: cell-based, human; conditions: platelets plus Denosumab, 96 h; doxorubicin for the last 24 h
Procedure: as §1, §2

[5] = system: SKBR3 breast cancer cell line; conditions: Schramek et al., Nature 2010; cited from earlier work
melanoma metastasis = conditions: Jones et al., Nature 2006, cited from earlier work

Molecule: COc1cccc2c1C(=O)c1c(O)c3c(c(O)c1C2=O)C[C@@](O)(C(=O)CO)C[C@@H]3O[C@H]1C[C@H](N)[C@H](O)[C@H](C)O1 [doxorubicin, reference compound]
- percentage of early apoptotic and dead cells compared to the control group ([1]; doxorubicin 1 μM, 48 h of treatment): greatly enhanced
- amount of viable AML cells ([1]; ex vivo cancer cell assay, doxorubicin applied): reduced

Molecule: Denosumab: fully human IgG2 monoclonal antibody specific to RANKL (Amgen); heavy chain SEQ ID 1, light chain SEQ ID 2
- effects of chemotherapeutic treatment upon RANKL neutralization (chemosensitivity) ([2]; Denosumab 20 μg/ml with sRANKL 100 ng/ml): restores and even increases the effects of chemotherapeutic treatment
- protective effect of platelets on tumor cell viability [3]: substantially reduced
- protective effect of platelets on tumor cell viability [4]: substantially reduced

B1: sRANKL: recombinant human soluble RANKL, Immunotools, Germany (protein)
chain: EKAMVDGSWLDLAKRSKLEAQPFAHLTINATDIPSGSHKVSLSSWYHDRGWAKISNMTFSNGKLIVNQDGFYYLYANICFRHHETSGDLATEYLQLMVYVTKTSIKIPSSHTLMKGGSTKYWSGNSEFHFYSINVGGFFKLRSGEEISIEVSNPSLLDPDQDATYFGAFKVRDID
- protection of malignant cells from the effects of chemotherapeutic treatment ([2]; sRANKL 100 ng/ml): protects the malignant cells from the effects of chemotherapeutic treatment
- effect of doxorubicin on the amount of viable AML cells in the presence of sRANKL ([1]; ex vivo cancer cell assay, doxorubicin plus sRANKL): neutralized
- effect of chemotherapeutic treatment when sRANKL was added ([1]; sRANKL 500 ng/ml added to doxorubicin 1 μM, 48 h): markedly reduced
- protection from apoptosis induced by doxorubicin [5]: protects the SKBR3 breast cancer cell line from apoptosis induced by doxorubicin

B2: osteoprotegerin: used for in vivo neutralization of RANKL in a mouse model of melanoma metastasis (protein, UniProt O00300 22-401, looked up)
Tumor necrosis factor …: ETFPPKYLHYDEETSHQLLCDKCPPGTYLKQHCTAKWKTVCAPCPDHYYTDSWHTSDECLYCSPVCKELQYVKQECNRTHNRVCECKEGRYLEIEFCLKHRSCPPGFGVVQAGTPERNTVCKRCPDGFFSNETSSKAPCRKHTNCSVFGLLLTQKGNATHDNICSGNSESTQKCGIDVTLCEEAFFRFAVPTKFTPNWLSVLVDNLPGTKVNAESVERIKRQHSSQEQTFQLLKLWKHQNKDQDIVKKIIQDIDLCENSVQRHIGHANLTFEQLRSLMESLPGKKVGAEDIEKTIKACKPSDQILKLLSLWRIKNGDQDTLKGLMHALKHSKTYHFPKTVTQSLKKTIRFLHSFTMYKLYQKLFLEMIGNQVQSVKISCL
- protection from paralysis (melanoma metastasis): complete protection from paralysis
- tumor burden in bones (melanoma metastasis; in bones, but not in other organs): marked reduction in tumor burden in bones
